# Entries after “also recorded” stand apart in the source; their conditions may differ.
# B1: R-spo1: Wnt signalling pathway agonist known to play a significant role in stem cell growth, added to the endoderm medium (protein, UniProt Q2MKA7 21-263, looked up)
# R-spondin-1: SRGIKGKRQRRISAEGSQACAKGCELCSEVNGCLKCSPKLFILLERNDIRQVGVCLPSCPPGYFDARNPDMNKCIKCKIEHCEACFSHNFCTKCKEGLYLHKGRCYPACPEGSSAANGTMECSSPAQCEMSEWSPWGPCSKKQQLCGFRRGSEERTRRVLHAPVGDHAACSDTKETRRCTVRRVPCPEGQKRRKGGQGRRENANRNLARKESKEAGAGSRRRKGQQQQQQQGTVGPLTSAGPA
# Test system: IPSC-derived endoderm cells
# Experiment: Endoderm differentiation of IPSCs with R-spo1 added, flow cytometry for EpCAM
# Type: cell-based, human
# Conditions: 5 ng/ml R-spo1 added to endoderm medium
# Protocol: To start with, IPSCs were differentiated into definitive endoderms in a medium containing 100 ng/mL Activin A, 50 ng/mL Wnt3a, and 5 ng/mL R-spo1factors for 5 days (FIG. 1A). During the definitive endoderm development stage, the parenchymal cells of the liver derive from a specific germ layer. […] In particular, it is evident that following independent differentiations, the percentage of CXCR4+/EpCAM+ endodermal cells derived from three independent IPSC lines (WT1, WT2 and WT3) is not too different from one another, and that the endodermal induction step of the protocol can be repeated (FIG. 1B). At this point of the assay, the differentiation medium was modified to obtain more EpCAM+ endoderm cells. Wnt signalling pathway agonist and 5 ng/ml R-spo1, which is known to play a significant role in stem cell growth, were added to the endoderm medium. […] As a result, this protocol enables IPSCs to differentiate into more EpCAM+endoderm cells in two-dimensional mediums.
molecule,measurement,setting,value
B1,morphology of the cells,DIC images,not affected negatively
same,EpCAM ratio / number of EpCAM (+) cells,"flow cytometry, three healthy IPSCs",causes an increase in the number of EpCAM (+) cells; also recorded: increases the EpCAM ratio considerably
